According to PMC9482650, “Quantitative fragmentomics allow affinity mapping of interactomes” (Nature Communications, 2022):

T1: MPDZ_10, O75970
T1 sequence (O75970 1624-1722, limits assumed, looked up): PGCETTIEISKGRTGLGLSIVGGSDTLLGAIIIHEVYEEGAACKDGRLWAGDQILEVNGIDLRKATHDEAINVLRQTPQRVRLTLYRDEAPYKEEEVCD

T2: DVL3, Q92997
T2 sequence (Q92997 244-331, limits assumed, looked up): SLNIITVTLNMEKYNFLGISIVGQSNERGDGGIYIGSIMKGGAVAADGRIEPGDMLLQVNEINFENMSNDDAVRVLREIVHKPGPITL

T3: SNTA1, Q13424
T3 sequence (Q13424 82-180, limits assumed, looked up): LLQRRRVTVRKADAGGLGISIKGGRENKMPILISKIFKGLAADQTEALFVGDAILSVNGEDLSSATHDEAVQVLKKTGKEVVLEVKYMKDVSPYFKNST

T4: TIAM2, Q8IVF5
T4 sequence (Q8IVF5 885-986, limits assumed, looked up): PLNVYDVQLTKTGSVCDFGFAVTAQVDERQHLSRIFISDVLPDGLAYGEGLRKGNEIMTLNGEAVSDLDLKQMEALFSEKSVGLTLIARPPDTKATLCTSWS

T5: HTRA4, P83105
T5 sequence (P83105 378-476, limits assumed, looked up): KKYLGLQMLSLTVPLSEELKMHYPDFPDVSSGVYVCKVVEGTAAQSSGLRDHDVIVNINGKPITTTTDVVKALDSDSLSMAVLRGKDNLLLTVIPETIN

T6: NHERF3_1, Q5T2W1
T6 sequence (Q5T2W1 4-100, limits assumed, looked up): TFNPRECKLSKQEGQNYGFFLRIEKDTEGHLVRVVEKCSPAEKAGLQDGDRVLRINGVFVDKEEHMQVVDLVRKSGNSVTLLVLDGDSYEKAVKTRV

T7: DFNB31_1, Q9P202
T7 sequence (Q9P202 135-233, limits assumed, looked up): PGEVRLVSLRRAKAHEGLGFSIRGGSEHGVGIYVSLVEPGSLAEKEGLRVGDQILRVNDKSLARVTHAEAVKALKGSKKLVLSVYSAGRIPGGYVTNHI

T8: DLG3_3, Q92796
T8 sequence (Q92796 374-475, limits assumed, looked up): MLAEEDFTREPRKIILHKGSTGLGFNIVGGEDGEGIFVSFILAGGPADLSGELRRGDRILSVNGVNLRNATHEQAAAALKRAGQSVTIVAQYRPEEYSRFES

T9: RAPGEF6, Q8TEU7
T9 sequence (Q8TEU7 525-625, limits assumed, looked up): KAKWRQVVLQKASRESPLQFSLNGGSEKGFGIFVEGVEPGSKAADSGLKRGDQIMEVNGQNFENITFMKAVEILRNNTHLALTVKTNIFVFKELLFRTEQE

T10: SNTG2, Q9NY99
T10 sequence (Q9NY99 68-166, limits assumed, looked up): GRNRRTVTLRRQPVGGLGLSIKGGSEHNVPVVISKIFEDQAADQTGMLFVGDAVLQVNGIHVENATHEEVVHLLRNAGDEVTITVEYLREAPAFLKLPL

T11: SNTG1, Q9NSN8
T11 sequence (Q9NSN8 52-150, limits assumed, looked up): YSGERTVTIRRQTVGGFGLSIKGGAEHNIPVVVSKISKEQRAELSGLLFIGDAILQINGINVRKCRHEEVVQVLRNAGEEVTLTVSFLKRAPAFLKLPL

T12: LIN7B, Q9HAP6
T12 sequence (Q9HAP6 88-185, limits assumed, looked up): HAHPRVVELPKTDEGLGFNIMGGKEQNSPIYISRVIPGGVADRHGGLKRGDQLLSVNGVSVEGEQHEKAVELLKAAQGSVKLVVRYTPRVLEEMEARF

T13: DFNB31_2, Q9P202
T13 sequence (Q9P202 274-371, limits assumed, looked up): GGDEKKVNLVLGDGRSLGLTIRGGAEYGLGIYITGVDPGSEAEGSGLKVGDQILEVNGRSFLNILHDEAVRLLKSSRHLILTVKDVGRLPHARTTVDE


Columns and labels:
Assay in all cases: holdup assay
Set-up in all cases: key: below the threshold = too weak to quantify, mostly under pKd 3.1 to 4
Details in all cases: plain residues with an end cap or a label only (N-terminal biotin on a linker: ado-ado)
[1] = molecular target: IL16_1, Q14005
Chain of IL16_1, Q14005 (Q14005 210-306): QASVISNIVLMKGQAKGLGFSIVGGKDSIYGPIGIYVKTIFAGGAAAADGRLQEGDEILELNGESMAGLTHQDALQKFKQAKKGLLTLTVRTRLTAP

[2] = molecular target: GORASP2, Q9H8Y8
[3] = molecular target: T1, MPDZ_10, O75970
[4] = molecular target: T2, DVL3, Q92997
[5] = molecular target: IL16_4, Q14005
Chain of IL16_4, Q14005 (Q14005 1229-1329): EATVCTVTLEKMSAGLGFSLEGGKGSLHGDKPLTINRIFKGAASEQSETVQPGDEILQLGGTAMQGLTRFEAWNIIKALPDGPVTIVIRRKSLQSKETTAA

[6] = molecular target: DLG5_1, Q8TDM6
Chain of DLG5_1, Q8TDM6 (Q8TDM6 617-713): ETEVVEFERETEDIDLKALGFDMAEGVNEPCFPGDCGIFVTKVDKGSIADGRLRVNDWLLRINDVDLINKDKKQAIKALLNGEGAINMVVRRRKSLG

[7] = molecular target: T3, SNTA1, Q13424
[8] = molecular target: PDLIM1, O00151
Chain of PDLIM1, O00151 (O00151 1-87): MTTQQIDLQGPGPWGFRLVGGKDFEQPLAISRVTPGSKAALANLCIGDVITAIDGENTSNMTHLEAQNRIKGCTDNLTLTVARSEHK

[9] = molecular target: T4, TIAM2, Q8IVF5
[10] = molecular target: Inadl_8, Q8NI35
Chain of Inadl_8, Q8NI35 (Q8NI35 1425-1530): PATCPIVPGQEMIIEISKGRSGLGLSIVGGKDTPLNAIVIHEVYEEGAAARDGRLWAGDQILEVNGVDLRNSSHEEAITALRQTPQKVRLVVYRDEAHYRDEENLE

[11] = molecular target: T5, HTRA4, P83105
[12] = molecular target: T6, NHERF3_1, Q5T2W1
[13] = molecular target: T7, DFNB31_1, Q9P202
[14] = molecular target: LIMK2, P53671
Chain of LIMK2, P53671 (P53671 143-248): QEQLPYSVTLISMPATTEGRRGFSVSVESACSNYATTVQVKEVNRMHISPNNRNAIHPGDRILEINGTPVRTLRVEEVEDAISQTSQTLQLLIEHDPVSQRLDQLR

[15] = molecular target: FRMPD2_3, Q68DX3
Chain of FRMPD2_3, Q68DX3 (Q68DX3 1073-1166): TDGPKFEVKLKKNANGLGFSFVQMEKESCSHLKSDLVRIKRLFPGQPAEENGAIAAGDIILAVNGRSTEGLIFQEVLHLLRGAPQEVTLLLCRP

[16] = molecular target: PARD3_3, Q8TEW0
Chain of PARD3_3, Q8TEW0 (Q8TEW0 582-685): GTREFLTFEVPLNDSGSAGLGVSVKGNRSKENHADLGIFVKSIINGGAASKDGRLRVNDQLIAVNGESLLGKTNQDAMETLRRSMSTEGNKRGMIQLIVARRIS

[17] = molecular target: T8, DLG3_3, Q92796
[18] = molecular target: T9, RAPGEF6, Q8TEU7
[19] = molecular target: T10, SNTG2, Q9NY99
[20] = molecular target: SCRIB_1, Q14160
Chain of SCRIB_1, Q14160 (Q14160 718-814): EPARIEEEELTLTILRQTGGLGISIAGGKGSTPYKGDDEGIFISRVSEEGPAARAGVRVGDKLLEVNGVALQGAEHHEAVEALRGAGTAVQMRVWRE

[21] = molecular target: T11, SNTG1, Q9NSN8
[22] = molecular target: NOS1, P29475
Chain of NOS1, P29475 (P29475 9-101): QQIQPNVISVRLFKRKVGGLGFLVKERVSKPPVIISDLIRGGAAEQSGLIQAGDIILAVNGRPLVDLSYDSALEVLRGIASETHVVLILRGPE

[23] = molecular target: GRIP2_5, Q9C0E4
Chain of GRIP2_5, Q9C0E4 (Q9C0E4 544-642): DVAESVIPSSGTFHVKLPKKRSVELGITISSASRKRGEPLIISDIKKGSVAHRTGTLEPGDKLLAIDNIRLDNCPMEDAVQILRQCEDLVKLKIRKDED

[24] = molecular target: T12, LIN7B, Q9HAP6
[25] = molecular target: T13, DFNB31_2, Q9P202

pKd [1]	pKd [2]	pKd [3]	pKd [4]	pKd [5]	pKd [6]	pKd [7]	pKd [8]	pKd [9]	pKd [10]	pKd [11]	pKd [12]	pKd [13]	pKd [14]	pKd [15]	pKd [16]	pKd [17]	pKd [18]	pKd [19]	pKd [20]	Binder	further results
below the threshold	3.9	below the threshold	below the threshold	below the threshold	below the threshold	below the threshold	below the threshold	below the threshold	3.54	4.55	4.11	below the threshold	below the threshold	below the threshold	below the threshold	4.25	below the threshold	below the threshold	below the threshold	NISARRFTLC [FAM167B, Q9BTA0]	pKd [21]: 3.48; pKd [22]: 3.81; pKd [23]: below the threshold; pKd [24]: 4.08; pKd [25]: below the threshold
below the threshold	4.05	below the threshold	below the threshold	below the threshold	below the threshold	4.42	below the threshold	4.19	3.61	4.36	4.22	3.63	below the threshold	below the threshold	4.38	below the threshold	3.65	4.47	4.89	ADEMICITTL [CACNA1D, Q01668]	pKd [21]: 4.32; pKd [22]: 3.58; pKd [23]: below the threshold; pKd [24]: 3.95; pKd [25]: below the threshold
3.54	3.57	below the threshold	below the threshold	below the threshold	below the threshold	4.88	below the threshold	below the threshold	3.5	below the threshold	5.21	5.43	below the threshold	below the threshold	3.81	3.98	below the threshold	5.1	5.19	TKDKVQETQI [LRRC4, Q9HBW1]	pKd [21]: 4.97; pKd [22]: 4.02; pKd [23]: below the threshold; pKd [24]: 3.74; pKd [25]: 3.71
below the threshold	below the threshold	below the threshold	below the threshold	below the threshold	below the threshold	below the threshold	below the threshold	4.09	below the threshold	below the threshold	3.53	below the threshold	below the threshold	below the threshold	below the threshold	below the threshold	below the threshold	below the threshold	below the threshold	RSPVATATSC [DUSP5, Q16690]	pKd [21]: below the threshold; pKd [22]: below the threshold; pKd [23]: below the threshold; pKd [24]: 3.68; pKd [25]: below the threshold
below the threshold	4.31	below the threshold	below the threshold	below the threshold	below the threshold	below the threshold	below the threshold	3.96	below the threshold	3.67	below the threshold	below the threshold	below the threshold	below the threshold	below the threshold	below the threshold	below the threshold	below the threshold	below the threshold	MLPANYVEAI [NEB, P20929]	pKd [21]: below the threshold; pKd [22]: 3.52; pKd [23]: below the threshold; pKd [24]: 3.69; pKd [25]: below the threshold
below the threshold	below the threshold	below the threshold	below the threshold	below the threshold	below the threshold	below the threshold	below the threshold	below the threshold	below the threshold	3.94	below the threshold	below the threshold	below the threshold	below the threshold	4.23	below the threshold	below the threshold	below the threshold	below the threshold	LVEEEEPMNL [HDAC7, Q8WUI4]	pKd [21]: below the threshold; pKd [22]: below the threshold; pKd [23]: below the threshold; pKd [24]: below the threshold; pKd [25]: below the threshold
